Data set [1] has as its target T1, wild-type E. coli GalK (Escherichia coli, UniProt P0A6T3).
T1 construct: made in house
T1 sequence (P0A6T3 1-382): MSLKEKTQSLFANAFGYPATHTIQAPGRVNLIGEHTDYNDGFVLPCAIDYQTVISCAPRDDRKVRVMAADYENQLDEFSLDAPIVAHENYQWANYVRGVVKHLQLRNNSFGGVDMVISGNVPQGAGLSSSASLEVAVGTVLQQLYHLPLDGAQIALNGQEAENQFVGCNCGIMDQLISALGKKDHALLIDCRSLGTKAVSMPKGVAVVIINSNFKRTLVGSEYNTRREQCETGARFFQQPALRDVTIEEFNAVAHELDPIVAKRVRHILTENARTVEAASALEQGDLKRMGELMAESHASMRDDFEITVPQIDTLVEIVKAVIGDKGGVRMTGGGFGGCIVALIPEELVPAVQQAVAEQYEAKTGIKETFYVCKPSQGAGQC
It counts as biochemical. An excerpt: (§1) Characterization of GalK Mutants. […] The mutant enzymes were purified by using metal affinity chromatography on Ni-NTA Spin Columns (QIAGEN, Valencia, Calif.) and fractions containing homogenous protein were collected, concentrated and quantified using the Bradford protein assay. The DNS assay was used to assess the substrate specificity of the purified GalK mutants as previously described. […] For each sugar, the DNS assay was used to monitor the reaction progress and control assays in the absence of enzyme or sugar were performed in parallel. Standard curves for each sugar were prepared as described. To assess general percent conversion, each reaction contained 15.0 (M enzyme, 8 mM sugar, 14 mM ATP and 3.5 mM MgCl2. The reactions were incubated at 37° C. for 3 hrs after which the reactions were quenched with MeOH, centrifuged (10 min, 12,000 rpm) and then the supernatant (diluted 20-fold) submitted for LC-MS and MS/MS analysis. For monosaccharide kinetic data determination, the sugar concentration was varied over a range of 1-8 mM, under saturating ATP (14 mM). Reaction progress was assessed via the DNS assay, wherein a change in absorbance at 575 nm as a function of time was obtained and the initial velocity determined by the slope of the linear phase in the progress curve. The kinetic data was analyzed using Enzyme Kinetics Module software (SSPS, Inc., Chicago, Ill.) as previously described.
(§2) Characterization of Engineered E. coli GalK Mutants.

Data set [2] deals with T2, E. coli double M173L-Y371H mutant GalK (Escherichia coli, UniProt P0A6T3, M173L/Y371H).
T2 construct: His-tag (concluded from Ni-NTA purification and vector pET15b); made in house
As to the kind of experiment: Substrate screen / percent conversion of 45 sugars, M173L-Y371H. It is filed as biochemical.
Description: as §1, with “The reactions were incubated at 37° C. for 3 hrs after which the reactions were quenched with MeOH, centrifuged (10 min, 12,000 rpm) and then the supernatant (diluted 20-fold) submitted for LC-MS and MS/MS analysis.” left out
as §2

Data set [3] addresses T3, L. lactis wild-type GalK (Lactococcus lactis subsp. lactis, UniProt Q9R7D7).
T3 sequence (Q9R7D7 1-399): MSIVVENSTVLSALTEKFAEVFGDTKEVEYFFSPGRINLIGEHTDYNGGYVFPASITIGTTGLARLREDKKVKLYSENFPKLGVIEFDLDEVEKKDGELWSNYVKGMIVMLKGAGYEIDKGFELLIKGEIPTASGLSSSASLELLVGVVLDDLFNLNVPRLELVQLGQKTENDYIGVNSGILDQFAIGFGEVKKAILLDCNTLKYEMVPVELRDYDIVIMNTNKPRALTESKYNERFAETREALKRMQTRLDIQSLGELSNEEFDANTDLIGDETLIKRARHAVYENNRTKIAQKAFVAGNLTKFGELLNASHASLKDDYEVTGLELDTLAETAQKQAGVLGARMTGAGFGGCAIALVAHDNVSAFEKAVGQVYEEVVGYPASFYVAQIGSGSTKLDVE
Particulars: in vitro; cited from earlier work.

Data set [4] deals with GalK mutant Y371H (Escherichia coli, UniProt P0A6T3, Y371H). Particulars: sugar 1-16 mM, saturating ATP (15 mM).
Data set [5] concerns CC1OC(O)C(O)C(O)C1O. The experiment in a line: purified protein, by the assay type. As to conditions: other: sugar 1-16 mM, saturating ATP (15 mM).
For data set [6], the system named is NC1C(O)OC(CO)C(O)C1O. The experiment in a line: purified protein, by the assay type. As to conditions: other: sugar 1-16 mM, saturating ATP (15 mM).
Data set [7] has as its system NCC1OC(O)C(O)C(O)C1O. The experiment in a line: purified protein, by the assay type. As to conditions: other: sugar 1-16 mM, saturating ATP (15 mM).
For data set [8], the system named is O=C(O)C1OC(O)C(O)C(O)C1O. The experiment in a line: purified protein, by the assay type. As to conditions: other: sugar 1-16 mM, saturating ATP (15 mM).
The test system of data set [9] is O=C[C@H](O)C[C@@H](O)[C@H](O)CO. The experiment in a line: purified protein, by the assay type. As to conditions: other: sugar 1-16 mM, saturating ATP (15 mM).
Data set [10] deals with OCC1OC(O)CC(O)C1O. As to the kind of experiment: purified protein, by the assay type. Particulars: other: sugar 1-16 mM, saturating ATP (15 mM).
Substrate in data set [11]: CC1OC(O)C(O)C(O)C1O
The experiment in a line: Kinetics and substrate specificity of wild-type GalK with sugar substrates (DNS assay), Table 1. It is filed as biochemical, E. coli. Particulars: other: sugar 1-16 mM, saturating ATP (15 mM).

Substrate in data set [12]: NC1C(O)OC(CO)C(O)C1O
The description is as above. It is filed as biochemical, E. coli. As to conditions: other: sugar 1-16 mM, saturating ATP (15 mM).

Substrate in data set [13]: O=C[C@H](O)C[C@@H](O)[C@H](O)CO
Described as above. It is filed as biochemical, E. coli. As to conditions: other: sugar 1-16 mM, saturating ATP (15 mM).

Substrate in data set [14]: OCC1OC(O)CC(O)C1O
Described as above. Particulars: other: sugar 1-16 mM, saturating ATP (15 mM). It counts as biochemical, E. coli.

Results on five molecules are retold here after patent US7479385B2, “Sugar kinases with expanded substrate specificity and their use” (Wisconsin Alumni Research Foundation, priority 2003, dated 2009).

What is called Km is the concentration of substrate that gives half-maximal velocity. Broadly, the kcat is the maximal rate divided by the concentration of active sites. Broadly, the kcat/Km is the second-order rate constant that governs catalysis at low substrate concentration.

Chain of GalK mutant Y371H (P0A6T3 whole entry Y371H): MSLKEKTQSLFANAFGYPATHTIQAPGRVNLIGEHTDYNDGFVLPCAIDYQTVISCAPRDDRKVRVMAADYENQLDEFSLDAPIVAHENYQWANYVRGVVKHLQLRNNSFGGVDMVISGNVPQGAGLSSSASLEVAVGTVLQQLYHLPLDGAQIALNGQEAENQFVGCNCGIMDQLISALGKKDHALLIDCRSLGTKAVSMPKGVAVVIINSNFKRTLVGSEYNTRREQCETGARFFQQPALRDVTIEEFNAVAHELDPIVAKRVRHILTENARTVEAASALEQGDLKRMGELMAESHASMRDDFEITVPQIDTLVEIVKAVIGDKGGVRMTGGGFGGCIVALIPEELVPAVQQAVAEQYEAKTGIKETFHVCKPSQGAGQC
T2 sequence (P0A6T3 whole entry M173L/Y371H): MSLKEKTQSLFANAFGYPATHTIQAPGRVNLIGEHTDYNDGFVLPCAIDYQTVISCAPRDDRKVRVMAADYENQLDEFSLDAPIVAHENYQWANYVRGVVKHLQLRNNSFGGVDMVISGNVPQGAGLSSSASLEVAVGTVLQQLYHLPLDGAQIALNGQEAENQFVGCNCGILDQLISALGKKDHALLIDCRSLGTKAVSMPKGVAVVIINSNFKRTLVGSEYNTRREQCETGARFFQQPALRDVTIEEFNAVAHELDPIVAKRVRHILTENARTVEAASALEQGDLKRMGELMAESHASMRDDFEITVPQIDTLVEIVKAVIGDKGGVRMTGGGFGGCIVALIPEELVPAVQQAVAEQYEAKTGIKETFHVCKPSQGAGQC

On to `[N-]=[N+]=N[C@H]([C@H](O)[C@@H](O)C=O)[C@H](O)CO` [4-azido-4-deoxy-D-galactose (21), 4-azido-4-deoxy-D-galactose], for which, in data set [1], the “substrate of wild-type E. coli GalK (in words)” value is on record as “not a substrates”. Besides, the “kinase activity of M173L-Y371H double mutant (in words)” value in data set [2] is given as “accept”. In addition, in [3], the “conversion / activity with L. lactis wild-type GalK (in words)” value is reported as “in vitro conversion”.
With `O=C[C@H](O)[C@@H](O)C[C@H](O)CO` [4-deoxy-D-galactose (25), 4-deoxy-D-galactose], the “conversion / activity with L. lactis wild-type GalK (in words)” value in data set [3] was “in vitro conversion”.
Turning to `O=C[C@@H](O)[C@H](O)[C@@H](O)[C@@H](O)CO` [L-Glc (25), L-glucose], the Km in data set [4] (read-out: Km, Y371H) came to 2.7 mM. The “kcat, Y371H” value in data set [4] was 1.08 s⁻¹.
Take “GalK mutant Y371H (Escherichia coli K-12; Y371H)”: the Km is reported as 8.0 mM in data set [5]; 8.8 mM in [6]; 21.3 mM in data set [7]; 3.2 mM in [8]; 10.1 mM in data set [9]; 4.7 mM in [10]. Further, the kcat in data set [5] turned out to be 1.68 s⁻¹; in data set [6] it was 4.33 s⁻¹; in data set [7], 2.48 s⁻¹; in data set [8], 0.967 s⁻¹; in [9], 1.08 s⁻¹; in data set [10] it was 3.33 s⁻¹. Moreover, the kcat/Km in [5] worked out at 210 M⁻¹ s⁻¹; in [6], 492 M⁻¹ s⁻¹; in [7] it was 117 M⁻¹ s⁻¹; in data set [8], 302 M⁻¹ s⁻¹; in [9], 107 M⁻¹ s⁻¹; in data set [10], 710 M⁻¹ s⁻¹.

B1: wild-type E. coli GalK (Escherichia coli K-12) (protein)
chain: MSLKEKTQSLFANAFGYPATHTIQAPGRVNLIGEHTDYNDGFVLPCAIDYQTVISCAPRDDRKVRVMAADYENQLDEFSLDAPIVAHENYQWANYVRGVVKHLQLRNNSFGGVDMVISGNVPQGAGLSSSASLEVAVGTVLQQLYHLPLDGAQIALNGQEAENQFVGCNCGIMDQLISALGKKDHALLIDCRSLGTKAVSMPKGVAVVIINSNFKRTLVGSEYNTRREQCETGARFFQQPALRDVTIEEFNAVAHELDPIVAKRVRHILTENARTVEAASALEQGDLKRMGELMAESHASMRDDFEITVPQIDTLVEIVKAVIGDKGGVRMTGGGFGGCIVALIPEELVPAVQQAVAEQYEAKTGIKETFYVCKPSQGAGQC
notes: made in house
For the molecule B1, the Km in [11] stood at 4.9 mM; in [12] it was 2.9 mM; in [13], 6.4 mM; in data set [14] it was 3.6 mM. For the same molecule, the catalytic constant (kcat) in [11] came to 0.0483 s⁻¹; in data set [12] it was 0.195 s⁻¹; in data set [13] it was 0.085 s⁻¹; in [14] it was 0.5 s⁻¹. The kcat/Km was 9.83 M⁻¹ s⁻¹ in data set [11], 66.7 M⁻¹ s⁻¹ in data set [12], 13 M⁻¹ s⁻¹ in data set [13] and 138 M⁻¹ s⁻¹ in data set [14].
